From publication PMC9428852, “The N-linker region of hERG1a upregulates hERG1b potassium channels” (The Journal of Biological Chemistry, 2022)

Target: T1, 6xHis-hERG1a N1–354-FLAG (human, UniProt Q12809 1-354)
T1 construct: Plasmid made commercially (BioInnovatise); also called hERG1a N-terminal region; source: bacteria, M15 cells, purified (nickel column); not shown: His6, N-terminal, kept; FLAG, C-terminal, kept
Test: pull-down; GST or GST fusion protein bound to glutathione beads, incubated with 6xHis fusion protein in buffer S (50 mM Tris pH 8, 150 mM NaCl, 25 mM imidazole, 0.25% Tween-20) with 0.5% CHAPS, overnight at 4 °C; washed; Western blot with anti-FLAG
Conditions: both partners purified

T1 sequence (Q12809 1-354): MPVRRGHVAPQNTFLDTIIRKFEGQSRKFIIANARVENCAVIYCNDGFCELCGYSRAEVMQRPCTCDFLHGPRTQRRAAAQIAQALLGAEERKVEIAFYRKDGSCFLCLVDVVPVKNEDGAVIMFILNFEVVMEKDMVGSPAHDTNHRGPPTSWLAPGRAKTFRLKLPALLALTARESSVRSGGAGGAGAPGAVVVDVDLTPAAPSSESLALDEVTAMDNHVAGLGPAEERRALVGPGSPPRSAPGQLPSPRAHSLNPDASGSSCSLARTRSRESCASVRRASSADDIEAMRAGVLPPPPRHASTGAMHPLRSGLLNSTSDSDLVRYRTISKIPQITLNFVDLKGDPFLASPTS

B1: GST-hERG1b N1–56 (domain or fragment, human, UniProt Q12809-2 1-56, looked up)
chain: MAAPAGKASRTGALRPRAQKGRVRRAVRISSLVAQEVLSLGADVLPEYKLQAPRIH
notes: hERG1b (KCNH2 isoform 1b), human, N-terminal region residues 1-56; numbers count on: hERG1b; Plasmid made commercially (BioInnovatise); also called hERG1b N-terminal region; GST–hERG1b N-terminal region; not shown: GST, N-terminal, kept
Question: Does B1 bind?
Answer: Result: binds
